Measured values published in patent US8293494 (UNIVERSITATSKLINIKUM FREIBURG, dated 2012).
Values belong to the binder of their own block, whether it stands above or below them.

How the values were obtained:
[1] = molecular target: TAP-LSD1 (UniProt O60341 1-852); assay: TAP-LSD1 complexes immobilised on IgG sepharose, Western blot
From the text: Protein complexes were immobilised on IgG, sepharose, released from IgG sepharose by TEV protease cleavage of the TAP tag, followed by immunoprecipitation of Flag-tagged AR with α-Flag antibody. […] Ten percent of the extract used for immunoprecipitation was loaded as input.
LSD1 associated complexes were released from IgG sepharose by TEV protease cleavage of the TAP-tag followed by immunoprecipitation of Flag-tagged AR with α-Flag antibody. […] We applied the TAP-based co-purification strategy because the moderate expression levels of the endogenous proteins would only have allowed a limited number of purification steps.

[2] = molecular target: LSD1 (endogenous, LNCaP cells) (human, UniProt O60341 1-852); assay: Re-ChIP in LNCaP cells
Method: LNCaP cells were incubated with or without the AR agonist R1881 (a, b), and transfected with stealth RNAi (b). ChIP or Re-ChIP was performed with the indicated antibodies. The precipitated chromatin was amplified by PCR using primers flanking the promoter region (ARE I+II) and the enhancer region (ARE III) of the PSA gene, the promoter region (ARE) of the KLK2 gene, or the promoters of the unrelated GAPDH and U6 genes. […] Western blots were decorated with the indicated antibodies against α-mono-, α-di-, or α-trimethyl H3K9.
ChIP experiments were performed as described[3]. LNCaP cells were treated for 45 min (FIG. 2a) or 210 min in the presence or absence of 10^-8 M R1881 as indicated. LNCaP cells were transfected three days before harvesting for ChIP with or without stealth RNAi (Invitrogen) following the manufacturer's instructions. […] For PCR, 1-5 µl out of 50 d DNA extract was used. For Re-ChIP assays, immunoprecipitations were sequentially washed with TSE I, TSE II, buffer III, and TE[20]. Complexes were eluted by incubation with 10 mM DTT at 37° C. for 30 minutes, diluted 50 times with dilution buffer[20] followed by a second immunoprecipitation with the indicated antibodies.

[3] = molecular target: T1, GFP-JHDM2A (UniProt Q9Y4C1 1-1321); assay: co-immunoprecipitation with α-Flag from transfected 293 cells, Western blot with α-GFP
T1 construct: not shown: GFP fusion partner
T1 sequence (looked up): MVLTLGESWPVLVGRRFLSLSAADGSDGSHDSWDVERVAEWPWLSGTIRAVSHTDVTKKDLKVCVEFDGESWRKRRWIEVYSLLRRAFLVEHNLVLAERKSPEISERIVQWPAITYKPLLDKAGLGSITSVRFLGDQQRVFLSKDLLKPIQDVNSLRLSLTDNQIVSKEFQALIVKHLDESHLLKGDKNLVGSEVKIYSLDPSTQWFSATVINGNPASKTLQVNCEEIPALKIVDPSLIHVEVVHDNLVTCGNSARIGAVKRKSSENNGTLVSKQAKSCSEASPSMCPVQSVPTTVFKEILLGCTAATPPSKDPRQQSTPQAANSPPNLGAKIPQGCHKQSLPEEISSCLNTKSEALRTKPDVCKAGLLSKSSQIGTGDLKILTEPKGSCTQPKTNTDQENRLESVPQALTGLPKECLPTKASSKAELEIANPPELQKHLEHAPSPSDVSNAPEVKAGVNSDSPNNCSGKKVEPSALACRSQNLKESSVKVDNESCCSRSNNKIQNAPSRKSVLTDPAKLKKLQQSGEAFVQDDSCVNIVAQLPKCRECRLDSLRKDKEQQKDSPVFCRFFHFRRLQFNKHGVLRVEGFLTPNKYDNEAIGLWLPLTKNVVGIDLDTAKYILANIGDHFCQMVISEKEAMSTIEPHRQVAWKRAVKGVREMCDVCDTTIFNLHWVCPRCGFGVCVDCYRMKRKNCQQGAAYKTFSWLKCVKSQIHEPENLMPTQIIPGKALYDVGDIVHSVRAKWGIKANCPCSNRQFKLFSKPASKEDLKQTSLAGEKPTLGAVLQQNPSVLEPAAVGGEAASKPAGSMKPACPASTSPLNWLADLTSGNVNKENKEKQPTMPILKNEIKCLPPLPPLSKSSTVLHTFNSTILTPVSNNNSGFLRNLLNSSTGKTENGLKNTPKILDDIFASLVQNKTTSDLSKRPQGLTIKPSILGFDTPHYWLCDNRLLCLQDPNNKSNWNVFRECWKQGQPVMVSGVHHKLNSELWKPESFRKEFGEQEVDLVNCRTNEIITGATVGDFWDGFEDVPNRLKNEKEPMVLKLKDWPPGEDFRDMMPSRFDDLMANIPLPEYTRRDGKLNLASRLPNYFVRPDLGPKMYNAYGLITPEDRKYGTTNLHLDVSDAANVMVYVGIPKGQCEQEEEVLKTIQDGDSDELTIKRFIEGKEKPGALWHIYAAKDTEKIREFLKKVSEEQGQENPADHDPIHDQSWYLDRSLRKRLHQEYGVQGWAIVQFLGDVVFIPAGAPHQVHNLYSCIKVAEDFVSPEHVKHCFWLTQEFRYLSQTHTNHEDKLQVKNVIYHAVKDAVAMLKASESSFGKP
From the text: Extracts were immunoprecipitated with α-Flag antibody. Twenty percent of the extract used for immunoprecipitation was loaded as input. Western blots were decorated with α-GFP (Santa Cruz; 1:500) or α-Flag antibody (1:2500).

B2: JMJD2C (endogenous, LNCaP cells) (enzyme)
chain: MEVAEVESPLNPSCKIMTFRPSMEEFREFNKYLAYMESKGAHRAGLAKVIPPKEWKPRQCYDDIDNLLIPAPIQQMVTGQSGLFTQYNIQKKAMTVKEFRQLANSGKYCTPRYLDYEDLERKYWKNLTFVAPIYGADINGSIYDEGVDEWNIARLNTVLDVVEEECGISIEGVNTPYLYFGMWKTTFAWHTEDMDLYSINYLHFGEPKSWYAIPPEHGKRLERLAQGFFPSSSQGCDAFLRHKMTLISPSVLKKYGIPFDKITQEAGEFMITFPYGYHAGFNHGFNCAESTNFATVRWIDYGKVAKLCTCRKDMVKISMDIFVRKFQPDRYQLWKQGKDIYTIDHTKPTPASTPEVKAWLQRRRKVRKASRSFQCARSTSKRPKADEEEEVSDEVDGAEVPNPDSVTDDLKVSEKSEAAVKLRNTEASSEEESSASRMQVEQNLSDHIKLSGNSCLSTSVTEDIKTEDDKAYAYRSVPSISSEADDSIPLSSGYEKPEKSDPSELSWPKSPESCSSVAESNGVLTEGEESDVESHGNGLEPGEIPAVPSGERNSFKVPSIAEGENKTSKSWRHPLSRPPARSPMTLVKQQAPSDEELPEVLSIEEEVEETESWAKPLIHLWQTKSPNFAAEQEYNATVARMKPHCAICTLLMPYHKPDSSNEENDARWETKLDEVVTSEGKTKPLIPEMCFIYSEENIEYSPPNAFLEEDGTSLLISCAKCCVRVHASCYGIPSHEICDGWLCARCKRNAWTAECCLCNLRGGALKQTKNNKWAHVMCAVAVPEVRFTNVPERTQIDVGRIPLQRLKLKCIFCRHRVKRVSGACIQCSYGRCPASFHVTCAHAAGVLMEPDDWPYVVNITCFRHKVNPNVKSKACEKVISVGQTVITKHRNTRYYSCRVMAVTSQTFYEVMFDDGSFSRDTFPEDIVSRDCLKLGPPAEGEVVQVKWPDGKLYGAKYFGSNIAHMYQVEFEDGSQIAMKREDIYTLDEELPKRVKARFSTASDMRFEDTFYGADIIQGERKRQRVLSSRFKNEYVADPVYRTFLKSSFQKKCQKRQ
notes: Endogenous protein, on chromatin (ChIP / Re-ChIP)
- binding result [2]: binds

B4: Flag-AR (receptor)
chain: MEVQLGLGRVYPRPPSKTYRGAFQNLFQSVREVIQNPGPRHPEAASAAPPGASLLLLQQQQQQQQQQQQQQQQQQQQQQQETSPRQQQQQQGEDGSPQAHRRGPTGYLVLDEEQQPSQPQSALECHPERGCVPEPGAAVAASKGLPQQLPAPPDEDDSAAPSTLSLLGPTFPGLSSCSADLKDILSEASTMQLLQQQQQEAVSEGSSSGRAREASGAPTSSKDNYLGGTSTISDNAKELCKAVSVSMGLGVEALEHLSPGEQLRGDCMYAPLLGVPPAVRPTPCAPLAECKGSLLDDSAGKSTEDTAEYSPFKGGYTKGLEGESLGCSGSAAAGSSGTLELPSTLSLYKSGALDEAAAYQSRDYYNFPLALAGPPPPPPPPHPHARIKLENPLDYGSAWAAAAAQCRYGDLASLHGAGAAGPGSGSPSAAASSSWHTLFTAEEGQLYGPCGGGGGGGGGGGGGGGGGGGGGGGEAGAVAPYGYTRPPQGLAGQESDFTAPDVWYPGGMVSRVPYPSPTCVKSEMGPWMDSYSGPYGDMRLETARDHVLPIDYYFPPQKTCLICGDEASGCHYGALTCGSCKVFFKRAAEGKQKYLCASRNDCTIDKFRRKNCPSCRLRKCYEAGMTLGARKLKKLGNLKLQEEGEASSTTSPTEETTQKLTVSHIEGYECQPIFLNVLEAIEPGVVCAGHDNNQPDSFAALLSSLNELGERQLVHVVKWAKALPGFRNLHVDDQMAVIQYSWMGLMVFAMGWRSFTNVNSRMLYFAPDLVFNEYRMHKSRMYSQCVRMRHLSQEFGWLQITPQEFLCMKALLLFSIIPVDGLKNQKFFDELRMNYIKELDRIIACKRKNPTSCSRRFYQLTKLLDSVQPIARELHQFTFDLLIKSHMVSVDFPEMMAEIISVQVPKILSGKVKPIYFHTQ
notes: Plasmid described previously; Assays in the presence of R1881; also called Flag-tagged AR; not shown: Flag tag
- binding result [1]: binds

The next lines start with the values.

- binding result [1]: binds
B1: V5-JMJD2C (enzyme)
chain: B2 chain
notes: also called CMX-DEST51-JMJD2C; not shown: V5 tag

- binding result [3]: no binding
B3: Flag-JMJD2C (enzyme, human, UniProt Q9H3R0 1-1056, looked up)
chain: B2 chain
notes: also called CMX-Flag-JMJD2C; not shown: Flag tag
